Consider two sequences from paper PMC4267192.

This data set addresses CCA1-GST (UniProt P92973). The data set is described as follows: EMSA. The settings on record: 25 mM HEPES-KOH pH 7.5, 50 mM KCl, 2.5 mM DTT, 1 mM PMSF, 10% glycerol, 1 ug poly-dIdC in 10 ul, 20 min on ice (final concentrations calculated from 5X …).

Chain of CCA1-GST (P92973 whole entry): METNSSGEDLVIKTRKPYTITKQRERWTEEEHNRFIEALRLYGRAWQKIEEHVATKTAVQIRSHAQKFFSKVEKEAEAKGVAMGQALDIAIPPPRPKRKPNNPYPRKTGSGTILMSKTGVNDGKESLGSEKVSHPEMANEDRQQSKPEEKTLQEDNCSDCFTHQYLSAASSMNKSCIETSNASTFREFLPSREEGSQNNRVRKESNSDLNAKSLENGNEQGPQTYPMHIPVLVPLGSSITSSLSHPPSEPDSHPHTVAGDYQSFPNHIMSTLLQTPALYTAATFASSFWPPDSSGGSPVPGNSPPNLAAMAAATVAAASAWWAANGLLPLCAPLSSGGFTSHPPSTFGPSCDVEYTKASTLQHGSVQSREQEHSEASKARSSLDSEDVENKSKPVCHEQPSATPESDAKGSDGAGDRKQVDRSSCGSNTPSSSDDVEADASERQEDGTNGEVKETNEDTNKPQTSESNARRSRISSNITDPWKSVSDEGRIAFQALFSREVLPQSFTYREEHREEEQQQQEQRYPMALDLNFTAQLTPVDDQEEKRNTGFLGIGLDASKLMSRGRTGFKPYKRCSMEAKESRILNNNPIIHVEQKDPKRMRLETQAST

“GTTAGCTTACGAGCATAAATTGCGAGATCTATCTTACTTCCCCAATGAAAAAAAAATCTCAAAGATTTGGAAGTAGACCTATGAATAGAATTACAATAATACGGCAATACCAATAACAA (double strand) [PHT4;1 promoter probe 2]”: the binding result was “binds”. The entry for “AATCAATTCCTCTCTCTTAAAACAAAGAAGAAAAAAACAGAGAAGAAGAAGAAAAAATCTATCTCCGCCATGAACGCGAGAGCTCTTCTTTGCTCTTCAAATATTCACTCTCTCTAC (double strand) [PHT4;1 promoter probe 3]” is “binds”.
